Source: patent US20130289253A1
Values joined by “and” are separate entries in the source; they are usually repeats but may differ in a detail not shown here. Equal entries are not always repeated. Where two headings read alike, the source gives them in different places.

Legend:
[1] = molecular target: HA peptide-stimulated PBMC (antigen-specific CD4+ T cells); test: flow cytometry, 37 °C 1 h, 10 µg/ml; HA306-318 stim
[2] = molecular target: HA peptide-stimulated PBMC (antigen-specific CD4+ T cells)
[3] = molecular target: control (Fig. 48); test: flow cytometry, RT, 1.75 µg/ml; control
[4] = molecular target: HA peptide-stimulated PBMC (antigen-specific CD4+ T cells); test: flow cytometry, RT, 1.75 µg/ml; HA306-318 stim
[5] = molecular target: HA peptide-stimulated PBMC (antigen-specific CD4+ T cells); remark: listed apart in the source
[6] = molecular target: control (Fig. 48)
[7] = molecular target: control (Fig. 48); test: flow cytometry, RT; control; conventional BSP multimer, concentration not given
[8] = molecular target: HA peptide-stimulated PBMC (antigen-specific CD4+ T cells); test: flow cytometry, staining at 4°C 1 h, 28 µg/ml; 10 min, no imidazole
[9] = molecular target: HA peptide-stimulated PBMC (antigen-specific CD4+ T cells); test: flow cytometry, staining at 4°C 1 h, 28 µg/ml; 1 min, no imidazole
[10] = molecular target: control (Fig. 48); test: flow cytometry, 4 °C; control
[11] = molecular target: HA peptide-stimulated PBMC (antigen-specific CD4+ T cells); remark: listed apart in the source
[12] = molecular target: HA peptide-stimulated PBMC (antigen-specific CD4+ T cells); test: flow cytometry, staining at 4°C 1 h, 28 µg/ml; 3 min, no imidazole
[13] = molecular target: HA peptide-stimulated PBMC (antigen-specific CD4+ T cells); test: flow cytometry, RT 1 h, 10 µg/ml; HA306-318 stim
[14] = molecular target: HA peptide-stimulated PBMC (antigen-specific CD4+ T cells); test: flow cytometry, 4 °C; HA306-318 stim
[15] = molecular target: HA peptide-stimulated PBMC (antigen-specific CD4+ T cells); test: flow cytometry, RT, 3.5 µg/ml; HA306-318 stim
[16] = molecular target: control (Fig. 48); test: flow cytometry, RT, 3.5 µg/ml; control
[17] = molecular target: HA peptide-stimulated PBMC (antigen-specific CD4+ T cells); test: flow cytometry, staining at 4°C 1 h, 28 µg/ml; 0 min, no imidazole
[18] = molecular target: HA peptide-stimulated PBMC (antigen-specific CD4+ T cells); test: flow cytometry, staining at 4°C 1 h, 28 µg/ml; 5 min, no imidazole
[19] = molecular target: HA peptide-stimulated PBMC (antigen-specific CD4+ T cells); test: flow cytometry, RT, 7 µg/ml; HA306-318 stim
[20] = molecular target: control (Fig. 48); test: flow cytometry, RT, 7 µg/ml; control

## DR4 2×His DTB-HA306-318 complexes (DTB-streptactin purified monomers) (from UniProt P01903 26-216) (peptide-MHC)
[1]
  % of cells in Q2 (multimer+ CD4+): 6.23%
[2]
  % of cells in Q2 (multimer+ CD4+): 12.3%
[3]
  % of cells in Q2 (multimer+ CD4+): 0.142%
[4]
  % of cells in Q2 (multimer+ CD4+): 7.23%
[5]
  % of cells in Q2 (multimer+ CD4+): 24.9% and 9.81%
[6]
  % of cells in Q2 (multimer+ CD4+): 0.384% and 0.618%
[7]
  % of cells in Q2 (multimer+ CD4+): 0.121%
[8]
  % of cells in Q2 (multimer+ CD4+): 4.35%
[9]
  % of cells in Q2 (multimer+ CD4+): 5.3%
[10]
  % of cells in Q2 (multimer+ CD4+): 0.355% and 0.561%
[11]
  % of cells in Q2 (multimer+ CD4+): 4.52%
[12]
  % of cells in Q2 (multimer+ CD4+): 4.68%
[13]
  % of cells in Q2 (multimer+ CD4+): 5.35% and 3.3%
[14]
  % of cells in Q2 (multimer+ CD4+): 2.52% and 2.3%
[15]
  % of cells in Q2 (multimer+ CD4+): 7.94%
[16]
  % of cells in Q2 (multimer+ CD4+): 0.222%
[17]
  % of cells in Q2 (multimer+ CD4+): 4.5%
[18]
  % of cells in Q2 (multimer+ CD4+): 4.59%
[19]
  % of cells in Q2 (multimer+ CD4+): 6.15%
[20]
  % of cells in Q2 (multimer+ CD4+): 0.11%
